Test results from patent US20220233706A1 (ANTIKOR BIOPHARMA, published 2022).

Assays:
[1] = target: T1, HER2 immobilised on a Biacore chip (UniProt P04626 23-652, limits assumed); experiment: Biacore SPR, HER2 amine-coupled to the chip
T1 construct: also called immobilised HER2 target antigen (Biacore SPR); HER2 chip

[2] = target: T1, HER2 immobilised on a Biacore chip; experiment: Biacore SPR, HER2 amine-coupled to the chip; Auristatin-F-C5 conjugate, DAR 5.65
Description: (§1) A standard amine-coupling method was used to prepare all Biacore surfaces (CM5 or CM3), as follows. Flow cells were activated individually by injecting a freshly mixed solution of 0.2M EDC in 0.05 M NHS at 30 μl/min. […] Excess NHS ester was deactivated using a 1 M ethanolamine solution. […] The dissociation time was extended to 3600 s for the highest concentration. Surfaces were regenerated with 45 s injection of MgCl₂ […].

[3] = target: T1, HER2 immobilised on a Biacore chip; experiment: Biacore SPR, HER2 amine-coupled to the chip; Auristatin-F-C5 conjugate, DAR 3.3
Description: as §1

[4] = target: T1, HER2 immobilised on a Biacore chip; experiment: Biacore SPR, HER2 amine-coupled to the chip; MMAF-C5 conjugate, DAR 7.1
Description: as §1

[5] = target: T1, HER2 immobilised on a Biacore chip; experiment: Biacore SPR, HER2 amine-coupled to the chip; MMAF-C5 conjugate, DAR 5.2
Description: as §1

koff [1] [s⁻¹] | kon [1] [M⁻¹ s⁻¹] | Kd [1] [nM] | Binder | also measured
1.35e-05 | 336000 | – | scFv (TCT1067)-Auristatin-F-C5 DAR 5.65 (scFv, Auristatin F-C5 on lysine residues; DAR 6.31 by AAA, 4.98 by MS, average 5.65, also called TCT1067-AF-C5 ADC2) scFv: SGSGGSGQVQLVQSGAEVKKPGESLKISCKGSGYSFTSYWIAWVRQMPGKGLEYMGLIYPGDSDTKYSPSFQGQVTISVDKSVSTAYLQWSSLKPSDSAVYFCARHDVGYCTDRTCAAWPEWLGVWGQGTLVTVSSGGGGSGGGGSGGGGSQSVLTQPPSVSAAPGQKVTISCSGSSSNIGNNYVSWYQQLPGTAPKLLIYGHTNRPAGVPDRFSGSKSGTSASLAISGFRSEDEADYYCASWDYTLSGWVFGGGTKLTVLMASMTGGQQMG | Kd [2]: 0.0403 nM
1.82e-05 | 556000 | – | scFv (TCT1067)-Auristatin-F-C5 DAR 3.3 (scFv, Auristatin F-C5 on lysine residues; DAR 3.64 by AAA, 2.9 by MS, average 3.3, also called TCT1067-AF-C5 ADC 1) scFv: SGSGGSGQVQLVQSGAEVKKPGESLKISCKGSGYSFTSYWIAWVRQMPGKGLEYMGLIYPGDSDTKYSPSFQGQVTISVDKSVSTAYLQWSSLKPSDSAVYFCARHDVGYCTDRTCAAWPEWLGVWGQGTLVTVSSGGGGSGGGGSGGGGSQSVLTQPPSVSAAPGQKVTISCSGSSSNIGNNYVSWYQQLPGTAPKLLIYGHTNRPAGVPDRFSGSKSGTSASLAISGFRSEDEADYYCASWDYTLSGWVFGGGTKLTVLMASMTGGQQMG | Kd [3]: 0.0328 nM
– | – | – | scFv (TCT1067)-MMAF-C5 ADC 2 (DAR 7.1) (scFv, MMAF-C5 on lysine residues; DAR 8.6 by AAA, 5.5 by MS, average 7.1, also called scFv (TCT1067)-MMAF DAR 8.7) scFv: SGSGGSGQVQLVQSGAEVKKPGESLKISCKGSGYSFTSYWIAWVRQMPGKGLEYMGLIYPGDSDTKYSPSFQGQVTISVDKSVSTAYLQWSSLKPSDSAVYFCARHDVGYCTDRTCAAWPEWLGVWGQGTLVTVSSGGGGSGGGGSGGGGSQSVLTQPPSVSAAPGQKVTISCSGSSSNIGNNYVSWYQQLPGTAPKLLIYGHTNRPAGVPDRFSGSKSGTSASLAISGFRSEDEADYYCASWDYTLSGWVFGGGTKLTVLMASMTGGQQMG | Kd [4]: 0.0038 nM; koff [4]: 1.7e-05 s⁻¹; kon [4]: 4.6e+06 M⁻¹ s⁻¹
– | – | – | scFv (TCT1067)-MMAF-C5 ADC 1 (DAR 5.2) (scFv, MMAF-C5 on lysine residues; DAR 6.4 by AAA, 4.0 by MS, average 5.2, also called scFv (TCT1067)-MMAF-C5 DAR 5.2; scFv (TCT1067)-MMAF-C5, DAR 6.4) scFv: SGSGGSGQVQLVQSGAEVKKPGESLKISCKGSGYSFTSYWIAWVRQMPGKGLEYMGLIYPGDSDTKYSPSFQGQVTISVDKSVSTAYLQWSSLKPSDSAVYFCARHDVGYCTDRTCAAWPEWLGVWGQGTLVTVSSGGGGSGGGGSGGGGSQSVLTQPPSVSAAPGQKVTISCSGSSSNIGNNYVSWYQQLPGTAPKLLIYGHTNRPAGVPDRFSGSKSGTSASLAISGFRSEDEADYYCASWDYTLSGWVFGGGTKLTVLMASMTGGQQMG | Kd [5]: 0.0196 nM; koff [5]: 3.4e-05 s⁻¹; kon [5]: 1.8e+06 M⁻¹ s⁻¹
7.13e-05 | 236000 | 0.302 | scFv (TCT1067)-P5-C5 DAR 10.9 (scFv, P5-C5 on lysine residues; DAR 10.4 by AAA, 11.7 by MS, overall average 10.9, also called TCT1067-P5C5 ADC 1; compound 71) scFv: SGSGGSGQVQLVQSGAEVKKPGESLKISCKGSGYSFTSYWIAWVRQMPGKGLEYMGLIYPGDSDTKYSPSFQGQVTISVDKSVSTAYLQWSSLKPSDSAVYFCARHDVGYCTDRTCAAWPEWLGVWGQGTLVTVSSGGGGSGGGGSGGGGSQSVLTQPPSVSAAPGQKVTISCSGSSSNIGNNYVSWYQQLPGTAPKLLIYGHTNRPAGVPDRFSGSKSGTSASLAISGFRSEDEADYYCASWDYTLSGWVFGGGTKLTVLMASMTGGQQMG | –
0.0042 | 1.2e+06 | 3.6 | scFv (TCT)-MMAF-C5 ADC 2 (DAR 6.8) (scFv, MMAF-C5 on lysine residues; DAR 8.0 by AAA, 5.5 by MS, average 6.8, also called scFv (TCT)-MMAF-C5 DAR 6.8; scFv (TCT)-MMAF DAR 8) scFv: SGSGGSGQVQLVQSGAEVKKPGESLKISCKGSGYSFTSYWIAWVRQMPGKGLEYMGLIYPGDSDTKYSPSFQGQVTISVDKSVSTAYLQWSSLKPSDSAVYFCARHDVGYCSSSNCAAWPEYFQHWGQGTLVTVSSGGGGSGGGGSGGGGSQSVLTQPPSVSAAPGQKVTISCSGSSSNIGNNYVSWYQQLPGTAPKLLIYGHTNRPAGVPDRFSGSKSGTSASLAISGFRSEDEADYYCAAWDDSLSGWVFGGGTKLTVLMASMTGGQQMG | –
0.0042 | 770000 | 5.4 | scFv (TCT)-MMAF-C5 ADC 1 (DAR 5.6) (scFv, MMAF-C5 (from MMAF-C5-NHS, compound 78) on lysine residues; DAR 6.64 by AAA, 4.5 by MS, average 5.6, also called scFv (TCT)-MMAF-C5 1 DAR 5.6; scFv (TCT)-MMAF-C5, DAR 6.6) scFv: SGSGGSGQVQLVQSGAEVKKPGESLKISCKGSGYSFTSYWIAWVRQMPGKGLEYMGLIYPGDSDTKYSPSFQGQVTISVDKSVSTAYLQWSSLKPSDSAVYFCARHDVGYCSSSNCAAWPEYFQHWGQGTLVTVSSGGGGSGGGGSGGGGSQSVLTQPPSVSAAPGQKVTISCSGSSSNIGNNYVSWYQQLPGTAPKLLIYGHTNRPAGVPDRFSGSKSGTSASLAISGFRSEDEADYYCAAWDDSLSGWVFGGGTKLTVLMASMTGGQQMG | –
0.0171 | 5.93e+06 | 2.9 | scFv (TCT)-Acetate DAR 15 (scFv, acetyl groups (from Acetate-NHS) on lysines, N-terminal amine and further residues, 15 additions by LC-MS, also called TCT-acetate conjugate 1) scFv: SGSGGSGQVQLVQSGAEVKKPGESLKISCKGSGYSFTSYWIAWVRQMPGKGLEYMGLIYPGDSDTKYSPSFQGQVTISVDKSVSTAYLQWSSLKPSDSAVYFCARHDVGYCSSSNCAAWPEYFQHWGQGTLVTVSSGGGGSGGGGSGGGGSQSVLTQPPSVSAAPGQKVTISCSGSSSNIGNNYVSWYQQLPGTAPKLLIYGHTNRPAGVPDRFSGSKSGTSASLAISGFRSEDEADYYCAAWDDSLSGWVFGGGTKLTVLMASMTGGQQMG | –
